Measured values from US20230212319A1, “NOVEL ANTIGEN BINDING DOMAINS AND SYNTHETIC ANTIGEN RECEPTORS INCORPORATING THE SAME” (University of Southern California, priority 2020, published 2023).

B1: 22053 (protein)
chain: MALPVTALLLPLALLLHAARPQLQLQESGPGLVKPSETLSLTCTVSGDSISSGDYYWGWIRQPPGKGLEWIGHIYYSGVTYYNPSLKSRVTISVDTSRNQFSLKLSSVTAADTAVYYCTREDSSNWRSRGQGTLVTVSSLEDKTHTCPPCPAPIKTDVITMDPKDNCSKDANDTLLLQLTNTSAYYMYLLLLLKSVVYFAIITCCLLRRTAFCCNGEKSRAKRSGSGATNFSLLKQAGDVEENPGPTSMDWIWRILFLVGAATGAHSFEVQLVESGGGVVQPGRSLRLSCAASGFSFSGYGMHWVRQAPGKGLEWVAYISYDGSNKYYADSVKGRFTISRDNSKNTLYLQMNSLRAEDTAVYYCAKDPAWGLRLGESSSYDFDIWGQGTMVTVSSTRDKTHTCPPCPAIPEDTFFPSPESSCDVKLVEKSFETDTNLNFQNLSVIGFRILLLKVAGFNLLMTLRLWSSRAKRSGSGVKQTLNFDLLKLAGDVESNPGPSRGHMTEYKPTVRLATRDDVPRAVRTLAAAFADYPATRHTVDPDRHIERVTELQELFLTRVGLDIGKVWVADDGAAVAVWTTPESVEAGAVFAEIGPRMAELSGSRLAAQQQMEGLLAPHRPKEPAWFLATVGVSPDHQGKGLGSAVVLPGVEAAERAGVPAFLETSAPRNLPFYERLGFTVTADVEVPEGPRTWCMTRKPGA
B2: 22045 (protein)
chain: MALPVTALLLPLALLLHAARPQLQLQESGPGLVKPSETLSLTCTVSGDSISSGDYYWGWIRQPPGKGLEWIGHIYYSGVTYYNPSLKSRVTISVDTSRNQFSLKLSSVTAADTAVYYCTREDSSNWRSRGQGTLVTVSSLEGSPIKTDVITMDPKDNCSKDANDTLLLQLTNTSAYYMYLLLLLKSVVYFAIITCCLLRRTAFCCNGEKSRAKRSGSGATNFSLLKQAGDVEENPGPTSMDWIWRILFLVGAATGAHSFEVQLVESGGGVVQPGRSLRLSCAASGFSFSGYGMHWVRQAPGKGLEWVAYISYDGSNKYYADSVKGRFTISRDNSKNTLYLQMNSLRAEDTAVYYCAKDPAWGLRLGESSSYDFDIWGQGTMVTVSSTRDKTHTCPPCPAIPEDTFFPSPESSCDVKLVEKSFETDTNLNFQNLSVIGFRILLLKVAGFNLLMTLRLWSSRAKRSGSGVKQTLNFDLLKLAGDVESNPGPSRGHMTEYKPTVRLATRDDVPRAVRTLAAAFADYPATRHTVDPDRHIERVTELQELFLTRVGLDIGKVWVADDGAAVAVWTTPESVEAGAVFAEIGPRMAELSGSRLAAQQQMEGLLAPHRPKEPAWFLATVGVSPDHQGKGLGSAVVLPGVEAAERAGVPAFLETSAPRNLPFYERLGFTVTADVEVPEGPRTWCMTRKPGA
B3: 22294 (protein)
chain: MALPVTALLLPLALLLHAARPQLQLQESGPGLVKPSETLSLTCTVSGDSISSGDYYWGWIRQPPGKGLEWIGHIYYSGVTYYNPSLKSRVTISVDTSRNQFSLKLSSVTAADTAVYYCTREDSSNWRSRGQGTLVTVSSLEGSIPEDTFFPSPESSCDVKLVEKSFETDTNLNFQNLSVIGFRILLLKVAGFNLLMTLRLWSSRAKRSGSGVKQTLNFDLLKLAGDVESNPGPTSATMDWIWRILFLVGAATGAHSEFMDPDLEIRAAFLRQRNTALRTEVAELEQEVQRLENEVSQYETRYGPLGGGKTRGSGRADCGFTSESYQQGVLSATILYEILLGKATLYAVLVSALVLMAMVKRKDSRGRAKRSGSGATNFSLLKQAGDVEENPGPSRGHMTEYKPTVRLATRDDVPRAVRTLAAAFADYPATRHTVDPDRHIERVTELQELFLTRVGLDIGKVWVADDGAAVAVWTTPESVEAGAVFAEIGPRMAELSGSRLAAQQQMEGLLAPHRPKEPAWFLATVGVSPDHQGKGLGSAVVLPGVEAAERAGVPAFLETSAPRNLPFYERLGFTVTADVEVPEGPRTWCMTRKPGA

Tested on: LNCaP cells
Test: JNG assay, co-culture with LNCaP cells
Type: cell-based
Conditions: for NFAT-GFP ASSAY: LNCaP: co-culture with LNCaP
Description: Cellular supernatant is collected and assayed for the induction of cytokines (e.g., IL2).
JNG (Jurkat cells expressing EGFP under an NFAT promoter) were infected with lentiviral vectors encoding different single chain and multi-chain SARs by spinfection in the presence of 8 µg/ml of Polybrene® (Sigma, Catalog no. H9268). The Jurkat-NFAT-GFP cells are engineered in such a way that the IL-2 promoter, which carries NFAT binding sites, is cloned upstream of the GFP gene. These cells have been used to study signaling via TCR and CAR. The different SARs were stably expressed in Jurkat NFAT-GFP cells by lentiviral mediated gene transfer, followed by selection with puromycin or blasticidin. No drug selection was used in case the construct lacked an antibiotic resistance gene. The SAR-expressing Jurkat-NFAT-GFP cells were cocultured with the target cells at E:T ratio of approximately 1:2 for approximately 4 hours to 18 hours. When the interaction between SIRs and their target antigen results in activation of the NFAT pathway, GFP expression is induced. […] GFP expression was monitored by FACS analysis. The Jurkat-NFAT-GFP (parental) cells were used as control. The structure of different constructs can be determined based on their names. For example, the construct CD8SP-CD19-hu-mROO5-1-vL-[hTCRa-C SDVP]-F-F2A-Spe-IgHSP-Apa-CD20-vHH-2HCD25-G4S-CDl9-hu-mROO5-1-vH-Mlu-[hTCRb-KACIAH]-F-P2A-PAC has the following modules from 5′ to 3′ direction: a CD8 signal peptide (CD8SP), the CD19 targeting hu-mROO5-1 vL fragment (CD19-hu-mROO5-1), Xho1 cloning site, human TCRa constant chain containing CSDVP mutations (hTCRa-CSDVP), Furine cleavage site (F), F2A ribosomal skip sequence (F2A), SpeI site, human IgH signal peptide (IgHSP), Apa I restriction enzyme site, camelid CD20-2HCD25-VHH module targeting CD20, BamHI restriction enzyme site, Glycinex4-serine linker (G4S), BstI restriction enzyme site, CD19-hu-mROO5-1-vH fragment targeting CD19, Mlu I restriction enzyme site, human TCRb constant chain containing KACIAH mutations ([hTCRb-KACIAH]), Furine cleavage site (F), P2A ribosomal skip sequence and Puromycin resistance gene (PAC). The sequence of the other constructs in the table can be similarly determined from their names and by referring to the different Tables of this disclosure that provide the names and SEQ ID NO of the different modules. Alternatively, the composition and modular architecture of the different SAR constructs can be determined from their sequences by bioinformatics tools, including using nucleic acid and amino acids homology searches. A SAR is considered positive in the assay in case the SAR expressing Jurkat-NFAT-GFP cells show greater % GFP positive cells when cultured with the target cell line as compared to parental Jurkat-NFAT-GFP cells. The signs +/-, +, 2+ etc. after the name of the cell lines indicate the relative degree of positivity on the Jurkat-NFAT-GFP assay as measured by the % GFP positive cells after culture of the SAR expressing Jurkat-NFAT-GFP cells with that cell line above the % GFP cells observed in parental Jurkat NFAT-GFP cells serving as controls. In general, the number +/-, +, 2+, 3+, 4+, 5+ refer to approximately 5%, 10%, 20%, 30%, 40% and 50% GFP positive cells. The % of GFP induction in the above assay is dependent not only the relative strength of the SAR but also, among other factors, on the relative level of expression of the SAR in the JNG cells and the relative level of expression of the target antigen in the target cell line. To control for the difference in gene transduction efficiency of the different SAR constructs, the experiment was conducted with JNG cells transduced with SAR constructs co-expressing a drug resistance gene (e.g., puromycin or PAC) followed by drug selection to generate a stable population of SAR-expressing cells. […]

Molecule	NFAT-GFP ASSAY: LNCaP	NFAT-GFP ASSAY: LNCaP with PSMA-USC76-chVH-EZIP (LNCaP in presence of SAR adaptor PSMA-USC76-chVH-EZIP)
B1	+ (refer to approximately 5%, 10%, 20%, 30%, 40% and 50% GFP positive cells)	–
B2	+/- (refer to approximately 5%, 10%, 20%, 30%, 40% and 50% GFP positive cells)	–
B3	–	+1
